Test results as given in article PMC11927663 (Science Advances, 2025).
Where no end group is shown, it is not given here.

Molecular target: β-subunit of nerve growth factor (UniProt P01138 122-241)
Test: ELISA

Sequence of β-subunit of nerve growth factor (P01138 122-241): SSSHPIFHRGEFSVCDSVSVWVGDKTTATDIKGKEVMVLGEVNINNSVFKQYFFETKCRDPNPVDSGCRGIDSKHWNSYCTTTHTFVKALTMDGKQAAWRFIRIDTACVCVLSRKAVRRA

## NERALTLGEEGAVVK (also: displayed on M13 phage) [NK-displaying M13 phage (β-NGF-binding peptide NK displayed on M13 phage)]
  fold increase in ELISA absorbance: 4 fold
